“And” between values parts separate entries of the source, which are not always exact repeats. Identical values can stand only once.
T1: human CTLA4 expressed on cells (human, UniProt P16410 36-223)
T1 sequence (looked up): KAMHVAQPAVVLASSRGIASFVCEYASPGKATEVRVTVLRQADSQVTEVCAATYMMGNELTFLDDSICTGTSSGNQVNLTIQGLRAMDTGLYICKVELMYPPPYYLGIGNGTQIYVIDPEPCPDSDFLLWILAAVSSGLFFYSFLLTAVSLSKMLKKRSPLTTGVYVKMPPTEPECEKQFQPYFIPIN

T2: Recombinant human CTLA4-hisFc (human, UniProt P16410 36-161, limits assumed)
T2 construct: Coated on the ELISA plate; the whole UniProt entry is named; also called recombinant human CLTA4-hisFc; its antigen; not shown: his tag and Fc
T2 sequence (looked up): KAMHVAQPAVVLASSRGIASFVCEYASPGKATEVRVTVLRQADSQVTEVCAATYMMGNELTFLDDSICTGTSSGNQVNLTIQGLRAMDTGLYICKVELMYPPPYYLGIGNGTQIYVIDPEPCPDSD


What was measured:
[1] = molecular target: T1, human CTLA4 expressed on cells; test: cell-based or functional assay
[2] = molecular target: T2, Recombinant human CTLA4-hisFc; test: ELISA, coated CTLA4-hisFc, after MMP-9 cleavage
Description: Plates were blocked with PBS supplemented with 3% non-fat milk at 37° C. for 1 hour. After washing, 100 µL of 3-fold serial dilutions of antibodies were added to each well. After incubation at 37° C. for 1 hour, plates were washed four times, and 100 μL HRP conjugated anti-human IgG (Fab specific) (1:6000 dilution) was added to each well. Plates were incubated at 37° C. for 1 hour, washed four times, and then 50 μL TMB substrate solution was added to each well, and the plate was incubated at room temperature. Absorbance at 450 nm was measured after the reactions were stopped with 50 μL H2SO4 per well. The EC50 was evaluated by fitting the ELISA data using the sigmoidal (four-parameter logistic equation) model of GraphPad Prism 6 software. Experiments for some activatable antibodies were performed twice or more, leading to two or more calculated masking efficiencies being obtained for each of these activatable antibodies.
The purified activatable antibodies were treated with the proteases which recognize the cleavage sequences, and were then tested to determine whether removal of the masking peptide restored their activity. […] The reactions were carried out at 37° C. for 24 hours. […] The masking efficiency was then measured by ELISA as described above.

[3] = molecular target: T2, Recombinant human CTLA4-hisFc; test: ELISA, coated CTLA4-hisFc
Description: Recombinant human CTLA4-hisFc was diluted to 1 μg/mL in PBS and coated on a Maxisorp plate at 4° C. overnight. Plates were blocked with PBS supplemented with 3% non-fat milk at 37° C. for 1 hour. After washing, 100 µL of 3-fold serial dilutions of antibodies were added to each well. After incubation at 37° C. for 1 hour, plates were washed four times, and 100 μL HRP conjugated anti-human IgG (Fab specific) (1:6000 dilution) was added to each well. Plates were incubated at 37° C. for 1 hour, washed four times, and then 50 μL TMB substrate solution was added to each well, and the plate was incubated at room temperature. Absorbance at 450 nm was measured after the reactions were stopped with 50 μL H2SO4 per well. The EC50 was evaluated by fitting the ELISA data using the sigmoidal (four-parameter logistic equation) model of GraphPad Prism 6 software. Experiments for some activatable antibodies were performed twice or more, leading to two or more calculated masking efficiencies being obtained for each of these activatable antibodies.

Binder | EC50 [3] | other results
TY24040 (antibody, human IgG1, kappa) heavy: not shown light: DIQLTQSPSSLSASVGDRVTITCRASQSVRGRFLAWYQQKPGKAPKLLIYDASNRATGIPSRFSGSGSGTDFTLTISSLQPEDFATYYCQQSSSWPPTFGQGTKVEIKRTVAAPSVFIFPPSDEQLKSGTASVVCLLNNFYPREAKVQWKVDNALQSGNSQESVTEQDSKDSTYSLSSTLTLSKADYEKHKVYACEVTHQGLSSPVTKSFNRGEC | – | ADCP reporter activity (luciferase), EC50 [1]: 2.04 nM
TY24649-MMP9 (antibody, human IgG1, TY24649 after 24 h with MMP-9; Wild-type human IgG1 Fc; also called TY24649 treated with recombinant human MMP-9) heavy: not shown light: DIQLTQSPSSLSASVGDRVTITCRASQSVRGRFLAWYQQKPGKAPKLLIYDASNRATGIPSRFSGSGSGTDFTLTISSLQPEDFATYYCQQSSSWPPTFGQGTKVEIKRTVAAPSVFIFPPSDEQLKSGTASVVCLLNNFYPREAKVQWKVDNALQSGNSQESVTEQDSKDSTYSLSSTLTLSKADYEKHKVYACEVTHQGLSSPVTKSFNRGEC | – | EC50 [2]: 0.286 nM
TY24149 (antibody, human IgG1, kappa) heavy: not shown light: EVGSYPPCVGFYPYCKTSGRSAGGGGTPLGLAGSGGSDIQLTQSPSSLSASVGDRVTITCRASQSVRGRFLAWYQQKPGKAPKLLIYDASNRATGIPSRFSGSGSGTDFTLTISSLQPEDFATYYCQQSSSWPPTFGQGTKVEIKRTVAAPSVFIFPPSDEQLKSGTASVVCLLNNFYPREAKVQWKVDNALQSGNSQESVTEQDSKDSTYSLSSTLTLSKADYEKHKVYACEVTHQGLSSPVTKSFNRGEC | 123 nM and 122 nM | Masking efficiency (EC50 / EC50 of TY21580) [3]: 356 fold
TY24155 (antibody, human IgG1, kappa) heavy: not shown light: EVGSYSSCKAPYPYCKGSGRSAGGGGTPLGLAGSGGSDIQLTQSPSSLSASVGDRVTITCRASQSVRGRFLAWYQQKPGKAPKLLIYDASNRATGIPSRFSGSGSGTDFTLTISSLQPEDFATYYCQQSSSWPPTFGQGTKVEIKRTVAAPSVFIFPPSDEQLKSGTASVVCLLNNFYPREAKVQWKVDNALQSGNSQESVTEQDSKDSTYSLSSTLTLSKADYEKHKVYACEVTHQGLSSPVTKSFNRGEC | 438 nM (2×) and 210 nM (2×) | –
TY24463 (antibody, human IgG1, kappa) heavy: not shown light: EVGSYTLCEPFATSVCRPSGRGPLGLAGGSDIQLTQSPSSLSASVGDRVTITCRASQSVRGRFLAWYQQKPGKAPKLLIYDASNRATGIPSRFSGSGSGTDFTLTISSLQPEDFATYYCQQSSSWPPTFGQGTKVEIKRTVAAPSVFIFPPSDEQLKSGTASVVCLLNNFYPREAKVQWKVDNALQSGNSQESVTEQDSKDSTYSLSSTLTLSKADYEKHKVYACEVTHQGLSSPVTKSFNRGEC | 996 nM | –
TY24464 (antibody, human IgG1, kappa) heavy: not shown light: EVGSYTLCEPFATSVCRPSGGGPLGLAGGSDIQLTQSPSSLSASVGDRVTITCRASQSVRGRFLAWYQQKPGKAPKLLIYDASNRATGIPSRFSGSGSGTDFTLTISSLQPEDFATYYCQQSSSWPPTFGQGTKVEIKRTVAAPSVFIFPPSDEQLKSGTASVVCLLNNFYPREAKVQWKVDNALQSGNSQESVTEQDSKDSTYSLSSTLTLSKADYEKHKVYACEVTHQGLSSPVTKSFNRGEC | 2140 nM | –
TY24148 (antibody, human IgG1, kappa) heavy: not shown light: EVGSYVLCAKFPFCITSGRSAGGGGTPLGLAGSGGSDIQLTQSPSSLSASVGDRVTITCRASQSVRGRFLAWYQQKPGKAPKLLIYDASNRATGIPSRFSGSGSGTDFTLTISSLQPEDFATYYCQQSSSWPPTFGQGTKVEIKRTVAAPSVFIFPPSDEQLKSGTASVVCLLNNFYPREAKVQWKVDNALQSGNSQESVTEQDSKDSTYSLSSTLTLSKADYEKHKVYACEVTHQGLSSPVTKSFNRGEC | 150 nM | Masking efficiency (EC50 / EC50 of TY21580) [3]: 436 fold
TY24461 (antibody, human IgG1, kappa) heavy: not shown light: EVGSYSSCKAPYPYCKGGGGPLGLAGGSDIQLTQSPSSLSASVGDRVTITCRASQSVRGRFLAWYQQKPGKAPKLLIYDASNRATGIPSRFSGSGSGTDFTLTISSLQPEDFATYYCQQSSSWPPTFGQGTKVEIKRTVAAPSVFIFPPSDEQLKSGTASVVCLLNNFYPREAKVQWKVDNALQSGNSQESVTEQDSKDSTYSLSSTLTLSKADYEKHKVYACEVTHQGLSSPVTKSFNRGEC | 310 nM | –
TY24460 (antibody, human IgG1, kappa) heavy: not shown light: EVGSYSSCKAPYPYCKGSGGGPLGLAGGSDIQLTQSPSSLSASVGDRVTITCRASQSVRGRFLAWYQQKPGKAPKLLIYDASNRATGIPSRFSGSGSGTDFTLTISSLQPEDFATYYCQQSSSWPPTFGQGTKVEIKRTVAAPSVFIFPPSDEQLKSGTASVVCLLNNFYPREAKVQWKVDNALQSGNSQESVTEQDSKDSTYSLSSTLTLSKADYEKHKVYACEVTHQGLSSPVTKSFNRGEC | 339 nM | –
TY24465 (antibody, human IgG1, kappa) heavy: not shown light: EVGSYTLCEPFATSVCRPGGGPLGLAGGSDIQLTQSPSSLSASVGDRVTITCRASQSVRGRFLAWYQQKPGKAPKLLIYDASNRATGIPSRFSGSGSGTDFTLTISSLQPEDFATYYCQQSSSWPPTFGQGTKVEIKRTVAAPSVFIFPPSDEQLKSGTASVVCLLNNFYPREAKVQWKVDNALQSGNSQESVTEQDSKDSTYSLSSTLTLSKADYEKHKVYACEVTHQGLSSPVTKSFNRGEC | 2.33 µM (2×) and 1.2 µM (2×) | –
TY24459 (antibody, human IgG1, kappa) heavy: not shown light: EVGSYSSCKAPYPYCKGSGRGPLGLAGGSDIQLTQSPSSLSASVGDRVTITCRASQSVRGRFLAWYQQKPGKAPKLLIYDASNRATGIPSRFSGSGSGTDFTLTISSLQPEDFATYYCQQSSSWPPTFGQGTKVEIKRTVAAPSVFIFPPSDEQLKSGTASVVCLLNNFYPREAKVQWKVDNALQSGNSQESVTEQDSKDSTYSLSSTLTLSKADYEKHKVYACEVTHQGLSSPVTKSFNRGEC | 209 nM | –
TY24462 (antibody, human IgG1, kappa) heavy: not shown light: ESSCKAPYPYCKGSGGGPLGLAGGSDIQLTQSPSSLSASVGDRVTITCRASQSVRGRFLAWYQQKPGKAPKLLIYDASNRATGIPSRFSGSGSGTDFTLTISSLQPEDFATYYCQQSSSWPPTFGQGTKVEIKRTVAAPSVFIFPPSDEQLKSGTASVVCLLNNFYPREAKVQWKVDNALQSGNSQESVTEQDSKDSTYSLSSTLTLSKADYEKHKVYACEVTHQGLSSPVTKSFNRGEC | 314 nM | –
TY24851 (antibody, IgG1, V domains shown, also called non-cleavable antibody TY24851) VH: EVQLVESGGGLVQPGGSLRLSCAASGYSISSGYHWSWIRQAPGKGLEWLARIDWDDDKYYSTSLKSRLTISRDNSKNTLYLQLNSLRAEDTAVYYCARSYVYFDYWGQGTLVTVSS VL: ETLCEPFATSVCRPGGGGSGGSGGGSDIQLTQSPSSLSASVGDRVTITCRASQSVRGRFLAWYQQKPGKAPKLLIYDASNRATGIPSRFSGSGSGTDFTLTISSLQPEDFATYYCQQSSSWPPTFGQGTKVEIKR | 25.8 nM | –
TY24841 (antibody, V domains shown) VH: EVQLVESGGGLVQPGGSLRLSCAASGYSISSGYHWSWIRQAPGKGLEWLARIDWDDDKYYSTSLKSRLTISRDNSKNTLYLQLNSLRAEDTAVYYCARSYVYFDYWGQGTLVTVSS VL: ETLCEPFATSVCRPGGGGSGGSGGGSDIQLTQSPSSLSASVGDRVTITCRASQSVRGRFLAWYQQKPGKAPKLLIYDASNRATGIPSRFSGSGSGTDFTLTISSLQPEDFATYYCQQSSSWPPTFGQGTKVEIKR | 34.9 nM | –
TY24466 (antibody, human IgG1, kappa) heavy: not shown light: ETLCEPFATSVCRPSGGGPLGLAGGSDIQLTQSPSSLSASVGDRVTITCRASQSVRGRFLAWYQQKPGKAPKLLIYDASNRATGIPSRFSGSGSGTDFTLTISSLQPEDFATYYCQQSSSWPPTFGQGTKVEIKRTVAAPSVFIFPPSDEQLKSGTASVVCLLNNFYPREAKVQWKVDNALQSGNSQESVTEQDSKDSTYSLSSTLTLSKADYEKHKVYACEVTHQGLSSPVTKSFNRGEC | 3.17 µM (2×) and 2.23 µM (2×) | –

Source: patent US20260258131A1 (ADAGENE PTE, published 2026)
